# Assay results from paper PMC7586039.
# Biological target: HPV16 pseudovirions (human papillomavirus type 16) (UniProt P03101)
row,Substance,IC50 of inhibition of HPV16 PsV infection of HeLa cells (PsV pretreated with the defensin) [µM]
1,RTD-4 (from UniProt P82270 65-76) (peptide),101
2,α-defensin HD5 (peptide),26
3,Rhesus Theta Defensin-1 (from UniProt P82270 65-76; P82271 65-76) (peptide),14
